± gives the standard deviation of the averaged measurements.
Test system: ATP
Assay: switch fluorescence ratio, 500 uM ATP over buffer (Cy3 cluster intensity, sum of 5 cycles each) (fold (ratio)); higher = stronger signal-on switching upon ATP binding; sequences stand for … in TCGTCGGCAGCGTCAGATGTGTATAAGAGACAGTTTTTTTTTTTTTTTTTTTTTTTTT…TC
Conditions: aptamer strand: ATP DNA aptamer (quencher-CACCTGGGGGAGTATTGCGGAGGAAGG + anchor), 100 nM annealed; ATP concentration: 500 uM
Outline: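 The quencher-labelled ATP aptamer, at 100 nM, was annealed to Cy3-labelled switching-strand clusters on a modified Illumina MiSeq flow-cell. The clusters were imaged in selection buffer, then after 15 min with 500 uM ATP at 22 °C, and this buffer/ATP cycle ran five times with NaOH stripping and re-annealing between runs. Per-cluster fluorescence ratios, summed target-cycle over summed buffer-cycle Cy3 intensity, were averaged per switch-domain sequence. Clusters outside 100-1000 RFU were excluded.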
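Further: ATP exposure 15 min at 22 °C before imaging.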

Sequence	switch fluorescence ratio
CTGGGTTATT	0.977 ± 0.042
CTGGGTTTAT	1 ± 0.042
CTGGTAATAT	1.15 ± 0.041
CTGGTACGAC	1.13 ± 0.016
CTGGTACGGA	1.0245 ± 0.00032
CTGGTCAATG	1.01 ± 0.063
CTGGTCGCTG	1.01 ± 0.046
CTGGTCGGGT	1 ± 0.006
CTGGTCGTGC	0.999 ± 0.013
CTGGTGGATT	0.996 ± 0.024
CTGGTGGCCG	1 ± 0.028
CTGGTTAACT	1.024 ± 0.0048
CTGGTTAGGT	1.01 ± 0.02
CTGGTTGCGG	0.979 ± 0.021
CTGGTTTTGT	1.04 ± 0.014
CTGTAAGGTG	1.83 ± 1
CTGTAAGTCT	0.989 ± 0.011
CTGTAGAAGA	1.05 ± 0.032
CTGTAGACGG	1.05 ± 0.014
CTGTATAGGT	0.965 ± 0.025
CTGTATCAAG	0.999 ± 0.013
CTGTATCTTT	1.02 ± 0.036
CTGTCAGATT	0.974 ± 0.025

Sequence	switch fluorescence ratio
CTGTCATGGG	0.9952 ± 0.0063
CTGTCCAGTT	1.02 ± 0.048
CTGTCGGGCG	1.02 ± 0.035
CTGTCGGGGT	0.982 ± 0.037
CTGTGAGTTT	1.007 ± 0.0094
CTGTGCCAAG	1.0036 ± 0.00061
CTGTGCTAGG	1.01 ± 0.011
CTGTGGCCCG	0.98 ± 0.027
CTGTGGGGGT	1.04 ± 0.012
CTGTGGTTTA	1.03 ± 0.021
CTGTGTGAAG	1 ± 0.038
CTGTGTGTTT	0.9781 ± 0.0072
CTGTTACTGT	0.986 ± 0.024
CTGTTAGGCG	0.9676 ± 0.0092
CTGTTCTAGT	0.963 ± 0.045
CTGTTGAAAA	1.07 ± 0.022
CTGTTGAATT	1.01 ± 0.046
CTGTTGGTGG	0.99 ± 0.017
CTGTTGTGGG	0.989 ± 0.039
CTGTTTAAGT	1.005 ± 0.0073
CTGTTTCCGA	1.03 ± 0.052
CTGTTTTTAT	1.01 ± 0.034
CTTAAAACGT	1.056 ± 0.0033

Sequence	switch fluorescence ratio
CTTAAATGGG	0.955 ± 0.019
CTTAAATTCT	1.01 ± 0.011
CTTACAGCTT	1.04 ± 0.023
CTTACAGTTT	1 ± 0.011
CTTACGGTCG	1.02 ± 0.038
CTTAGACGTC	0.948 ± 0.043
CTTAGAGTTG	0.983 ± 0.016
CTTAGCGGCC	1.007 ± 0.0038
CTTAGCTATT	1.019 ± 0.0077
CTTAGGCGGG	1 ± 0.059
CTTAGGGAGC	0.969 ± 0.085
CTTAGGGGCG	0.976 ± 0.024
CTTAGGGTTT	0.988 ± 0.019
CTTAGTAGT	0.973 ± 0.024
CTTAGTATAG	0.998 ± 0.032
CTTAGTGCGG	0.978 ± 0.0012
CTTAGTTGGT	0.965 ± 0.012
CTTATAGTGC	0.974 ± 0.0023
CTTATATATG	0.987 ± 0.017
CTTATATTTT	0.997 ± 0.066
CTTATCAATT	1 ± 0.018
CTTATCGAAG	0.968 ± 0.015
CTTATCGGGG	1 ± 0.013

Sequence	switch fluorescence ratio
CTTATGATAG	0.97 ± 0.013
CTTATGTATT	0.993 ± 0.019
CTTATTCGTC	1.04 ± 0.025
CTTCAGGTTG	1.016 ± 0.0024
CTTCCTGCCA	2.69 ± 0.36
CTTCCTTTTT	3.13 ± 3
CTTCGCACGG	3.54 ± 0.37
CTTCGTACAG	1.02 ± 0.014
CTTCGTCTCG	1.08 ± 0.072
CTTCGTGGCC	1.04 ± 0.036
CTTCTAGGCA	1.04 ± 0.032
CTTCTATAAC	1.07 ± 0.02
CTTCTGGGGC	1.04 ± 0.055
CTTGAAAAGC	1.05 ± 0.021
CTTGAAAAGG	0.9995 ± 0.0038
CTTGAAAGAT	0.99786 ± 0.00087
CTTGAAATTC	1.04 ± 0.017
CTTGACTTTT	1.015 ± 0.0014
CTTGGGGGGA	0.997 ± 0.029
CTTGGGGTGC	1.07 ± 0.094
CTTGGGTTTG	1.06 ± 0.14
CTTGGGTTTT	0.9548 ± 0.0091
CTTGGTCGGC	1.068 ± 0.0026

Sequence	switch fluorescence ratio
CTTGTAAAAT	0.993 ± 0.014
CTTGTAAGAA	1.02 ± 0.05
CTTGTAGGTG	1.36 ± 0.48
CTTGTATACG	0.9888 ± 0.001
CTTGTATAGT	0.9947 ± 0.0062
CTTGTATGAG	0.989 ± 0.012
CTTGTGAAA	1.009 ± 0.0082
CTTGTGCAAG	1.03 ± 0.024
CTTGTGGCTT	1.034 ± 0.0061
CTTGTGGTGT	0.973 ± 0.019
CTTGTTGGGT	0.999 ± 0.033
CTTGTTGTAT	1.01 ± 0.02
CTTGTTTGGC	1.02 ± 0.045
CTTGTTTGGG	1 ± 0.039
CTTTAAAGTT	1.09 ± 0.18
CTTTAAGGGC	0.986 ± 0.022
CTTTAATCAA	0.991 ± 0.013
CTTTAATGTC	1 ± 0.025
CTTTAATTCG	1 ± 0.028
CTTTAGCCGG	1.02 ± 0.049
CTTTATGGTT	0.99 ± 0.065
CTTTATTCGT	0.9896 ± 0.0096
CTTTCAATGG	1.07 ± 0.015

Sequence	switch fluorescence ratio
CTTTGGCTTC	0.9876 ± 0.0039
CTTTGGGGGG	0.982 ± 0.025
CTTTGGGGGT	0.979 ± 0.019
CTTTGGGTTG	1 ± 0.02
CTTTGTAGCC	1.05 ± 0.012
CTTTGTCGCT	1.01 ± 0.029
CTTTTAAGGC	1.1 ± 0.15
CTTTTAAGGT	0.984 ± 0.03
CTTTTACTAA	1.024 ± 0.0071
CTTTTAGTGT	0.963 ± 0.032
CTTTTATTGG	1 ± 0.029
CTTTTGAAGT	0.983 ± 0.01
CTTTTGAGAC	1.02 ± 0.053
CTTTTGAGGG	0.974 ± 0.018
CTTTTGTAAT	1.01 ± 0.014
CTTTTTTGAT	0.9831 ± 0.0061
CTTTTTTGCC	1.02 ± 0.019
GAAAAAAAGG	0.982 ± 0.051
GAAAAAACGT	1.05 ± 0.038
GAAAAAGCAA	1.14 ± 0.054
GAAAAAGCAT	1 ± 0.016
GAAAAAGTGA	0.975 ± 0.054
GAAAAAGTGG	0.998 ± 0.014

Sequence	switch fluorescence ratio
GAAAAATGCC	1.05 ± 0.05
GAAAAATTAA	0.993 ± 0.026
GAAAAGCAGG	0.989 ± 0.025
GAAAAGGGCG	1.01 ± 0.022
GAAAAGGGGT	1 ± 0.028
GAAAAGTATC	1.001 ± 0.0022
GAAAATAGGT	0.99 ± 0.024
GAAAATTGAG	1 ± 0.015
GAAAATTGCC	0.978 ± 0.075
GAAACAGATA	1 ± 0.012
GAAACATGCT	1.01 ± 0.052
GAAACGGGGG	1.013 ± 0.009
GAAACTGGAA	0.997 ± 0.016
GAAACTTGCA	1.075 ± 0.0066
GAAAGCATAT	1.01 ± 0.034
GAAAGCCCGT	0.989 ± 0.021
GAAAGCTGAG	1.18 ± 0.033
GAAAGGGATG	1.03 ± 0.029
GAAAGTAACC	1.05 ± 0.021

Source: the supplement of paper PMC10126150
